Measurements as given in patent US20230167164A1 (IMMUNOWAKE, published 2023).
Positions count from the first letter of the chain named. In names and notes the source's numbering stands.

T1: human IL-2 receptor (human, UniProt P01589 22-272; P14784 27-551; P31785 23-369)
T1 sequence (looked up) 1: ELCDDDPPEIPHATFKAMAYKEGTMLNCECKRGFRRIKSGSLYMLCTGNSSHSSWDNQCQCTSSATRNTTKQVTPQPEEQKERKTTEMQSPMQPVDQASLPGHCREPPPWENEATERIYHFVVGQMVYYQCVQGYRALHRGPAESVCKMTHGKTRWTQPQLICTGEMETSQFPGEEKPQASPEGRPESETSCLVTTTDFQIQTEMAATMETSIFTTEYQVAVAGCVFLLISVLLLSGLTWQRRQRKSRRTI
T1 sequence (looked up) 2: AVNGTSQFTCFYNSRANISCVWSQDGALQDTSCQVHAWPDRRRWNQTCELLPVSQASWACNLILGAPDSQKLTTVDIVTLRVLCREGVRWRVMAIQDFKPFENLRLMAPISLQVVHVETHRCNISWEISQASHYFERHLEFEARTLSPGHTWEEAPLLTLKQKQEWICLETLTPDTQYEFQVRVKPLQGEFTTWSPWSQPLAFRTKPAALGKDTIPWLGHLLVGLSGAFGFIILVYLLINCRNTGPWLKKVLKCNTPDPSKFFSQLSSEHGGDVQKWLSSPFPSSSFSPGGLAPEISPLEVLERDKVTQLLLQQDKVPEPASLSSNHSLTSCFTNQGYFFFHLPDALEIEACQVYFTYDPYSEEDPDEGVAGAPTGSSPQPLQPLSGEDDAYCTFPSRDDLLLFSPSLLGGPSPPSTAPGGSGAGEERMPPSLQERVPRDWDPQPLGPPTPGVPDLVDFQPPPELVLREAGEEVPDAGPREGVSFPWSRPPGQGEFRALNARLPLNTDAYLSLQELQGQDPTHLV
T1 sequence (looked up) 3: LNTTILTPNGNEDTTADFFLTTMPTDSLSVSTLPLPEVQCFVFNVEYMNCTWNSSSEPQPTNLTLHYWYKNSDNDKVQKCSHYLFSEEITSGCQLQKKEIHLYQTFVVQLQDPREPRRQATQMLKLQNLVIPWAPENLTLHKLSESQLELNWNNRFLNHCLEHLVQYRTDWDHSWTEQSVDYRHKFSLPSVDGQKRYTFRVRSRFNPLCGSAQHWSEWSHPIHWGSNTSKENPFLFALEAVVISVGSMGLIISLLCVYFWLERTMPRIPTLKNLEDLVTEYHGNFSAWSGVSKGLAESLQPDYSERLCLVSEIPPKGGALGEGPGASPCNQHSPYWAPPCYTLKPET

B1: IL-2(R38D/K43E/E61R/Q126T)/PD-L1(mut2)-Fc/IL-12(E59A/F60A) (Fc fusion)
chain 1: FTVTVPKDLYVVEYGSNMTIECKFPVEKQLDLAALQVYWMMEDKNIIQFVHGEEDLKVQHSSYRQRARLLKDQLSLGNAALQITDVKLQDAGVYTCLIAYKGADYKRITVKVNAPYNKINQRILVVDPVTSEHELTCQAEGYPKAEVIWTSSDHQVLSGKTTTTNSKREEKLFNVTSTLRINTTTNEIFYCTFRRLDPEENHTAELVIPELPLAHPPNERGGGGSGGGDKTHTCPPCPAPEDEGGPSVFLFPPKPKDTLMISRTPEVTCVVVDVSHEDPEVKFNWYVDGVEVHNAKTKPREEQYNSTYRVVSVLTVLHQDWLNGKEYKCKVSNKALPAPIEKTISKAKGQPREPQVYVYPPSREEMTKNQVSLTCLVKGFYPSDIAVEWESNGQPENNYKTTPPVLDEDGSFALVSKLTVDKSRWQQGNVFSCSVMHEALHNHYTQKSLSLSPGKGGGGSGGGIWELKKDVYVVELDWYPDAPGEMVVLTCDTPEEDGITWTLDQSSEVLGSGKTLTIQVKAAGDAGQYTCHKGGEVLSHSLLLLHKKEDGIWSTDILKDQKEPKNKTFLRCEAKNYSGRFTCWWLTTISTDLTFSVKSSRGSSDPQGVTCGAATLSAERVRGDNKEYEYSVECQEDSACPAAEESLPIEVMVDAVHKLKYENYTSSFFIRDIIKPDPPKNLQLKPLKNSRQVEVSWEYPDTWSTPHSYFSLTFCVQVQGKSKREKKDRVFTDKTSATVICRKNASISVRAQDRYYSSSWSEWASVPCSGGGGSGGGSGGGGSRNLPVATPDPGMFPCLHHSQNLLRAVSNMLQKARQTLEFYPCTSEEIDHEDITKDKTSTVEACLPLELTKNESCLNSRETSFITNGSCLASRKTSFMMALCLSSIYEDLKMYQVEFKTMNAKLLMDPKRQIFLDQNMLAVIDELMQALNFNSETVPQKSSLEEPDFYKTKIKLCILLHAFRIRAVTIDRVMSYLNAS
chain 2: FTVTVPKDLYVVEYGSNMTIECKFPVEKQLDLAALQVYWMMEDKNIIQFVHGEEDLKVQHSSYRQRARLLKDQLSLGNAALQITDVKLQDAGVYTCLIAYKGADYKRITVKVNAPYNKINQRILVVDPVTSEHELTCQAEGYPKAEVIWTSSDHQVLSGKTTTTNSKREEKLFNVTSTLRINTTTNEIFYCTFRRLDPEENHTAELVIPELPLAHPPNERGGGSGAPTSSSTKKTQLQLEHLLLDLQMILNGINNYKNPKLTDMLTFEFYMPKKATELKHLQCLERELKPLEEVLNLAQSKNFHLRPRDLISNINVIVLELKGSETTFMCEYADETATIVEFLNRWITFCTSIISTLTGGGGSGGGDKTHTCPPCPAPEKKGGPSVFLFPPKPKDTLMISRTPEVTCVVVDVSHEDPEVKFNWYVDGVEVHNAKTKPREEQYNSTYRVVSVLTVLHQDWLNGKEYKCKVSNKALPAPIEKTISKAKGQPREPQVYVLPPSREEMTKNQVSLLCLVKGFYPSDIAVEWESNGQPENRYMTWPPVLDSDGSFFLYSKLTVDKSRWQQGNVFSCSVMHEALHNHYTQKSLSLSPGK
B2: Fab-IL-12(WT)-Fc-CD4 Ab (other)
heavy 1: QVQLQQSGPEVVKPGASVKMSCKASGYTFTSYVIHWVRQKPGQGLDWIGYINPYNDGTDYDEKFKGKATLTSDTSTSTAYMELSSLRSEDTAVYYCAREKDNYATGAWFAYWGQGTLVTVSSASTKGPSVFPLAPSSKSTSGGTAALGCLVKDYFPEPVTVSWNSGALTSGVHTFPAVLQSSGLYSLSSVVTVPSSSLGTQTYICNVNHKPSNTKVDKKVEPKSCDKPGSGIWELKKDVYVVELDWYPDAPGEMVVLTCDTPEEDGITWTLDQSSEVLGSGKTLTIQVKEFGDAGQYTCHKGGEVLSHSLLLLHKKEDGIWSTDILKDQKEPKNKTFLRCEAKNYSGRFTCWWLTTISTDLTFSVKSSRGSSDPQGVTCGAATLSAERVRGDNKEYEYSVECQEDSACPAAEESLPIEVMVDAVHKLKYENYTSSFFIRDIIKPDPPKNLQLKPLKNSRQVEVSWEYPDTWSTPHSYFSLTFCVQVQGKSKREKKDRVFTDKTSATVICRKNASISVRAQDRYYSSSWSEWASVPCSGGGGSGGGGSGGGGSGGGGSGRNLPVATPDPGMFPCLHHSQNLLRAVSNMLQKARQTLEFYPCTSEEIDHEDITKDKTSTVEACLPLELTKNESCLNSRETSFITNGSCLASRKTSFMMALCLSSIYEDLKMYQVEFKTMNAKLLMDPKRQIFLDQNMLAVIDELMQALNFNSETVPQKSSLEEPDFYKTKIKLCILLHAFRIRAVTIDRVMSYLNASDKTHTCPPCPAPEDEGGPSVFLFPPKPKDTLMISRTPEVTCVVVDVSHEDPEVKFNWYVDGVEVHNAKTKPREEQYNSTYRVVSVLTVLHQDWLNGKEYKCKVSNKALPAPIEKTISKAKGQPREPQVYVYPPSREEMTKNQVSLTCLVKGFYPSDIAVEWESNGQPENNYKTTPPVLDEDGSFALVSKLTVDKSRWQQGNVFSCSVMHEALHNHYTQKSLSLSPGK
heavy 2: QVQLQQSGPEVVKPGASVKMSCKASGYTFTSYVIHWVRQKPGQGLDWIGYINPYNDGTDYDEKFKGKATLTSDTSTSTAYMELSSLRSEDTAVYYCAREKDNYATGAWFAYWGQGTLVTVSSASTKGPSVFPLAPSSKSTSGGTAALGCLVKDYFPEPVTVSWNSGALTSGVHTFPAVLQSSGLYSLSSVVTVPSSSLGTQTYICNVNHKPSNTKVDKKVEPKSCDKTHTCPPCPAPEKKGGPSVFLFPPKPKDTLMISRTPEVTCVVVDVSHEDPEVKFNWYVDGVEVHNAKTKPREEQYNSTYRVVSVLTVLHQDWLNGKEYKCKVSNKALPAPIEKTISKAKGQPREPQVYVLPPSREEMTKNQVSLLCLVKGFYPSDIAVEWESNGQPENRYMTWPPVLDSDGSFFLYSKLTVDKSRWQQGNVFSCSVMHEALHNHYTQKSLSLSPGK
light: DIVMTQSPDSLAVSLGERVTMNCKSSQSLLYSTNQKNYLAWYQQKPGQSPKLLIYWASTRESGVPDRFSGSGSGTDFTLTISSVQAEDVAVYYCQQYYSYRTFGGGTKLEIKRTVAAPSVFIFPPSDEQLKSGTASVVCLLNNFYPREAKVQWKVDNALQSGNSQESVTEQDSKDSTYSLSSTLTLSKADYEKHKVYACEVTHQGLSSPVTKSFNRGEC
B3: Fab-IL-23(WT)-Fc-CD4 Ab (other)
heavy 1: QVQLQQSGPEVVKPGASVKMSCKASGYTFTSYVIHWVRQKPGQGLDWIGYINPYNDGTDYDEKFKGKATLTSDTSTSTAYMELSSLRSEDTAVYYCAREKDNYATGAWFAYWGQGTLVTVSSASTKGPSVFPLAPSSKSTSGGTAALGCLVKDYFPEPVTVSWNSGALTSGVHTFPAVLQSSGLYSLSSVVTVPSSSLGTQTYICNVNHKPSNTKVDKKVEPKSCDKPGSGIWELKKDVYVVELDWYPDAPGEMVVLTCDTPEEDGITWTLDQSSEVLGSGKTLTIQVKEFGDAGQYTCHKGGEVLSHSLLLLHKKEDGIWSTDILKDQKEPKNKTFLRCEAKNYSGRFTCWWLTTISTDLTFSVKSSRGSSDPQGVTCGAATLSAERVRGDNKEYEYSVECQEDSACPAAEESLPIEVMVDAVHKLKYENYTSSFFIRDIIKPDPPKNLQLKPLKNSRQVEVSWEYPDTWSTPHSYFSLTFCVQVQGKSKREKKDRVFTDKTSATVICRKNASISVRAQDRYYSSSWSEWASVPCSGGGGSGGGGSGGGGSGGGGSGRAVPGGSSPAWTQCQQLSQKLCTLAWSAHPLVGHMDLREEGDEETTNDVPHIQCGDGCDPQGLRDNSQFCLQRIHQGLIFYEKLLGSDIFTGEPSLLPDSPVGQLHASLLGLSQLLQPEGHHWETQQIPSLSPSQPWQRLLLRFKILRSLQAFVAVAARVFAHGAATLSPDKTHTCPPCPAPEDEGGPSVFLFPPKPKDTLMISRTPEVTCVVVDVSHEDPEVKFNWYVDGVEVHNAKTKPREEQYNSTYRVVSVLTVLHQDWLNGKEYKCKVSNKALPAPIEKTISKAKGQPREPQVYVYPPSREEMTKNQVSLTCLVKGFYPSDIAVEWESNGQPENNYKTTPPVLDEDGSFALVSKLTVDKSRWQQGNVFSCSVMHEALHNHYTQKSLSLSPGK
heavy 2: B2 heavy 2
light: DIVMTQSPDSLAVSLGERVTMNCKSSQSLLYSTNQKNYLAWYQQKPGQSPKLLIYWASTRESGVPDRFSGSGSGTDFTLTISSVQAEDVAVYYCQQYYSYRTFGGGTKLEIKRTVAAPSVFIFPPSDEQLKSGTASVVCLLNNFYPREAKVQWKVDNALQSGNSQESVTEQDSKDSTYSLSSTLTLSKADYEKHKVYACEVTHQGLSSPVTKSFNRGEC
B4: Fab-IL-23(F60A)-Fc-CD4 Ab (other)
heavy 1: B3 heavy 1 with F291A
heavy 2: B2 heavy 2
light: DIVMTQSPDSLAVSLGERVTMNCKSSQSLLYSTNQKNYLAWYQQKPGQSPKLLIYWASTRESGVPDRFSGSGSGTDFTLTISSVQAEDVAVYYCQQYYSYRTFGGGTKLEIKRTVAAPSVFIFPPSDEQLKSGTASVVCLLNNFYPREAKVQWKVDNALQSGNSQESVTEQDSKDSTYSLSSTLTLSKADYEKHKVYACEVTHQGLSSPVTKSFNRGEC
B5: Fab-IL-12(E59A)-Fc-CD4 Ab (other)
heavy 1: B2 heavy 1 with E290A
heavy 2: B2 heavy 2
light: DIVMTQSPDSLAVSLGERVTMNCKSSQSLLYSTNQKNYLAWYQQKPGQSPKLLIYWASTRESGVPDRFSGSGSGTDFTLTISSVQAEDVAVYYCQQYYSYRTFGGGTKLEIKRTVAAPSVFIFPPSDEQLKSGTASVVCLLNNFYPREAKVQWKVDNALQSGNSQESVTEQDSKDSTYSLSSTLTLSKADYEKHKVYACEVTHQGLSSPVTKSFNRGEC
B6: Fab-IL-12(F60A)-Fc-CD4 Ab (other)
heavy 1: B2 heavy 1 with F291A
heavy 2: B2 heavy 2
light: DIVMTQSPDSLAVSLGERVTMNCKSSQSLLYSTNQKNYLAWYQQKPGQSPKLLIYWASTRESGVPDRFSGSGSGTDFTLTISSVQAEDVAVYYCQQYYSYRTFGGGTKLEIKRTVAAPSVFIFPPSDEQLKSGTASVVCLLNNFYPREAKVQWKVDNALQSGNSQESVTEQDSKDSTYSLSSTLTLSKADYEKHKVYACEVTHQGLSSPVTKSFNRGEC
B7: Fab-IL-12(E59A/F60A)-Fc-CD4 Ab (other)
heavy 1: B2 heavy 1 with E290A, F291A
heavy 2: B2 heavy 2
light: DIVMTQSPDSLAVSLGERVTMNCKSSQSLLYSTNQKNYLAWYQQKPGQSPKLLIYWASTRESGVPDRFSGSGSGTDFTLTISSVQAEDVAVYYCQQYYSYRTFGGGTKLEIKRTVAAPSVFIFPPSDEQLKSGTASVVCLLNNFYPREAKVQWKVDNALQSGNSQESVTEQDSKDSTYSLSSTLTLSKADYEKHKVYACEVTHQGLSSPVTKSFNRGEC
B8: Fab-IL-23(E59A)-Fc-CD4 Ab (other)
heavy 1: B3 heavy 1 with E290A
heavy 2: B2 heavy 2
light: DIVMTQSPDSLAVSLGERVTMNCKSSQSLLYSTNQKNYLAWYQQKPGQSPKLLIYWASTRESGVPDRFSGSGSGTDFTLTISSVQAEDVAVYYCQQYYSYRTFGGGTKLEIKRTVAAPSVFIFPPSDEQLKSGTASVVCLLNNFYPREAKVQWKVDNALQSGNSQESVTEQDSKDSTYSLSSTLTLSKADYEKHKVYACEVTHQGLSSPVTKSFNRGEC

Columns and labels:
[1] = target: T2, human IL-12 receptor complex (human, UniProt P42701 24-662; Q99665 24-862); test: cell-based or functional assay
T2 sequence (Q99665 24-862, chain 2 of 2, other chains not shown): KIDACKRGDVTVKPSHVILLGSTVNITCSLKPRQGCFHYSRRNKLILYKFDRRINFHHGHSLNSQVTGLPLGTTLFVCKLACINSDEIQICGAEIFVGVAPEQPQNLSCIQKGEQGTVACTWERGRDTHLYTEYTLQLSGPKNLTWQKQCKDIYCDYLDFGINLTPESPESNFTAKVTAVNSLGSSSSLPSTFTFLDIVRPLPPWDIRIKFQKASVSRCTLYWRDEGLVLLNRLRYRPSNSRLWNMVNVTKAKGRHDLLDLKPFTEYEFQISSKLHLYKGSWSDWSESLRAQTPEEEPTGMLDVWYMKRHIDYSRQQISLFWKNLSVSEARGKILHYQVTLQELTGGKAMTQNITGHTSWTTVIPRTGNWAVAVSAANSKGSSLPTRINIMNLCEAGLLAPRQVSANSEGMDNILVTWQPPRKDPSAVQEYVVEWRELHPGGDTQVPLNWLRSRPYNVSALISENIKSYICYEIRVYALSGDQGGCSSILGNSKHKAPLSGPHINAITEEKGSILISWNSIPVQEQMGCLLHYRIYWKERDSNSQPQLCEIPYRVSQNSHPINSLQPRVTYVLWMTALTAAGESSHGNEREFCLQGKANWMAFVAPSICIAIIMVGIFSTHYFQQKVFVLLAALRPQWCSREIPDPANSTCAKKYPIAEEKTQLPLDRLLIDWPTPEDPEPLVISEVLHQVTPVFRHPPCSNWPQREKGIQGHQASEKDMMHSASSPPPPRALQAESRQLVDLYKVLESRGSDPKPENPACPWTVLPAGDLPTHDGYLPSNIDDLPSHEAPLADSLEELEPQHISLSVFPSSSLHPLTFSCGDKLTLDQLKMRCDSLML

[2] = target: human PD-1 overexpressed on HEK-Blue reporter cells (human, UniProt Q15116 25-288); test: cell-based or functional assay
Sequence of human PD-1 overexpressed on HEK-Blue reporter cells (Q15116 25-288): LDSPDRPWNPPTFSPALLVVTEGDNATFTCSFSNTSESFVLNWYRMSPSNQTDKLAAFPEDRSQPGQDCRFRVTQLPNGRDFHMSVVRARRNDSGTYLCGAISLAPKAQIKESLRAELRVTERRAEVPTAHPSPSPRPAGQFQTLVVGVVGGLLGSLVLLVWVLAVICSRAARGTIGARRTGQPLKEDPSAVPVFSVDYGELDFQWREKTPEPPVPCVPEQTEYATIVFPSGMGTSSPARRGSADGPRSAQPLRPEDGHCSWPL

human IL-2 receptor = target: T1, human IL-2 receptor; test: cell-based or functional assay
[3] = target: T2, human IL-12 receptor complex; test: cell-based or functional assay; remark: listed apart in the source
CD8 on CD8+ T cells = target: T3, CD8 on CD8+ T cells (human, UniProt P01732 22-235); test: FACS on CD8+ T cells
T3 construct: whole, on cells
T3 sequence (P01732 22-235): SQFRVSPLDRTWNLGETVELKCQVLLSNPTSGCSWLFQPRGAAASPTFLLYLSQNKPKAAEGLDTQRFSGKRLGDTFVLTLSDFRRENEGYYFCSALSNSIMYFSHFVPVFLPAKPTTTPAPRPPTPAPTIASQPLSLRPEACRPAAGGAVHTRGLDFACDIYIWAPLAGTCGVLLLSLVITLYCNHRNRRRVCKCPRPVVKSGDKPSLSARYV

IL-23 receptor complex = IL-23 receptor complex (UniProt P42701 24-662; Q5VWK5 24-629, limits assumed); test: cell-based or functional assay
Sequence of IL-23 receptor complex (Q5VWK5 24-629 limits assumed, chain 2 of 2, other chains not shown): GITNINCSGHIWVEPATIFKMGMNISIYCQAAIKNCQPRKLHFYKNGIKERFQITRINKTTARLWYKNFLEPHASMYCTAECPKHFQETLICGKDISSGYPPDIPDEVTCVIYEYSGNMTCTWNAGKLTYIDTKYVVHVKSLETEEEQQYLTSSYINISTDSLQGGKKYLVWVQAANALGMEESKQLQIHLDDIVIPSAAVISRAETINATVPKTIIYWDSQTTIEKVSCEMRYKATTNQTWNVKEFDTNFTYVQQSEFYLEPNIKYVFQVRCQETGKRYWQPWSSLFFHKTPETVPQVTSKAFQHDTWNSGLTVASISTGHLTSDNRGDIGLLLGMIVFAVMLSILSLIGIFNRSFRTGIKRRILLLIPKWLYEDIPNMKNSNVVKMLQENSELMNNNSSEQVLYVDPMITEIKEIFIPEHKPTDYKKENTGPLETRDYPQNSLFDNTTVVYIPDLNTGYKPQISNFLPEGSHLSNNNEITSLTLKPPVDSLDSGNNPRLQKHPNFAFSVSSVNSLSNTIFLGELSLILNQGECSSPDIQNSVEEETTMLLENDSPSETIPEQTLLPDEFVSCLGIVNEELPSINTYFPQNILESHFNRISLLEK

Binder	IFN-γ release, % of rIL-12, activated CD8+ T cells [3]	binding result (CD8 on CD8+ T cells)	IFN-γ release, % of rIL-23, activated CD8+ T cells (IL-23 receptor complex)	other results
B1	–	–	–	IL-12 signal transduction, % of rIL-12, HEK-IL-12 cells [1]: 1%; IL-2 signal transduction, % of rIL-2, HEK-IL-2-PD-1 cells [2]: 31%; IL-12 signal transduction, % of rIL-12, HEK-IL-12-PD-1 cells [2]: 30%; IL-2 signal transduction, % of rIL-2, HEK-IL-2 cells (human IL-2 receptor): 3%
B2	25%	no binding	–	–
B3	–	no binding	21%	–
B4	–	–	1.5%	–
B5	1.1%	no binding	–	–
B6	1.5%	no binding	–	–
B7	0%	no binding	–	–
B8	–	–	2%	–
